We go through three molecules from patent US20220195067A1 (LAMKAP BIO BETA, published 2022).

Assay [1] has as its target T1, his-tagged recombinant huCEACAM3 (R&D Systems, #9868-CM) (human, UniProt P40198 35-155).
T1 construct: Bought reagent; also called rec. hCEACAM3; recombinant soluble human CEACAM3; not shown: His tag
T1 sequence (looked up): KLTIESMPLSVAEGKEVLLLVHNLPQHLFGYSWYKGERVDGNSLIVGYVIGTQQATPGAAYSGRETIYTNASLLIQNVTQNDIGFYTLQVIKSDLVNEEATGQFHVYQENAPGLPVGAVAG
Nature of the assay: BLI (Octet), his-tagged CEACAM3 on HIS1K biosensor, antibody as analyte. How it is done:
The affinity of the anti-human CEACAM5 arms of the CD47×CEACAM5 bispecific antibodies of the invention for recombinant soluble human CEACAM3 was determined using the Bio-Layer Interferometry (BLI) technology and an OctetRED96 instrument. HIS1K biosensors (Sartorius), loaded with an anti-His tag antibody, were used to capture his-tagged recombinant huCEACAM3 (R&D Systems, #9868-CM). The measurement was performed at 30° C. After hydration, pre-conditioning and a baseline step in Kinetic buffer (PBS, 0.002% Tween 20, 0.01% BSA, Kathon; Sartorius), biosensors were loaded for 5 min with the recombinant huCEACAM3 at 5 μg/mL in Kinetic buffer. Then, biosensors were dipped into a serial dilution of k bodies, starting at 667 nM with a 2× dilution factor. The association and dissociation phases were monitored for 60 seconds and 120 seconds respectively. Biosensors were regenerated using 10 mM glycine pH 1.7. A standard acquisition rate was applied (5.0 Hz, averaging by 20). Curves were processed with a double reference subtraction, a Y alignment on the baseline and an interstep correction. The affinity was measured applying a 1:1 global fitting model on the full association step and the first 5 seconds of the dissociation step.
Background: BLI is a label-free optical method that tracks binding on a fibre tip over time.

Assay [2] deals with T2, human CEACAM5 on CEACAM5-expressing cancer cell lines (human, UniProt P06731 35-685).
T2 construct: whole, on cells; also called CEACAM5 on SK-CO-1, MKN-45, HPAF-II, SNU-C1, Ls174T, LoVo cells
T2 sequence (looked up): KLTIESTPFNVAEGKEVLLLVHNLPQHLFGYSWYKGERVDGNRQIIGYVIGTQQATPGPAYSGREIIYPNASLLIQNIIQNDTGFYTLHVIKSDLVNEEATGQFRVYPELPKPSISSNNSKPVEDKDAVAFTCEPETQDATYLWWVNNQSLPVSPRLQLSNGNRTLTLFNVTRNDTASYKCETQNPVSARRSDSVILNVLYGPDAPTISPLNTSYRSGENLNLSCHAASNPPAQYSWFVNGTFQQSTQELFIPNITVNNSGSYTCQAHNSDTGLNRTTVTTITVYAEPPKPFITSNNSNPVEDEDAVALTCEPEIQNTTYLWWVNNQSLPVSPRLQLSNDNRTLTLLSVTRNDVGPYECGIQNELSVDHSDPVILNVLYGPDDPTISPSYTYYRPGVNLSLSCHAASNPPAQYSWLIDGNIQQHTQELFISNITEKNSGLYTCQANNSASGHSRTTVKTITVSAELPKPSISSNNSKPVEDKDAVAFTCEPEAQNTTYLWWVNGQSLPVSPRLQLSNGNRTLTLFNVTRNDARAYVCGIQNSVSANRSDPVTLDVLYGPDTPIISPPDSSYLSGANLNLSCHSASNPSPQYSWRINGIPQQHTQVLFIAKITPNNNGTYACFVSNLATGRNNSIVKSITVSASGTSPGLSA
The assay is described as follows: flow cytometry on LoVo cells (carry CEACAM5 and CD47), PE anti-human IgG Fc. How it is done: (§1) The binding of CD47×CEACAM5 bispecific antibodies was tested on CEACAM5-expressing human gastric adenocarcinoma cells (e.g. MKN-45), on CEACAM5-expressing human colorectal cancer cells (SK-CO-1, SNU-C1, Ls174T, and LoVo), and on CEACAM5-expressing pancreatic adenocarcinoma cells (HPAF-II).
(§2) Cells were harvested, counted, checked for viability and resuspended at 3×10⁶ cells/ml in FACS buffer (PBS 2% BSA, 0.1% NaN3). 100 μl of the cell suspension was distributed in V-bottom 96-well plates (3×10⁵ cells/well). The supernatant was removed by centrifugation 3 minutes at 4° C., 1300 rpm. Increasing concentrations of the antibody according to the invention were then added into the wells and incubated for 15 minutes at 4° C. Cells were washed twice with cold FACS buffer and re-incubated for further 15 minutes at 4° C. with the PE (R-phycoerythrin)-conjugated mouse anti-human IgG Fc secondary antibody (SouthernBiotech, pre-diluted 1:100 in FACS buffer). Cells were washed twice with cold FACS buffer and resuspended in 300 μl FACS buffer with 1:15000-diluted SytoxBlue (Life Technologies). Fluorescence, specifically mean fluorescence […] (MFI), was determined using a Cytoflex […] flow cytometer. Binding curves and […] and Emax values were obtained and calculated using GraphPad Prism7 software.

In assay [3] the target is T2, human CEACAM5 on CEACAM5-expressing …. The assay is described as follows: flow cytometry on MKN-45 cells (carry CEACAM5 and CD47), PE anti-human IgG Fc. How it is done:
as §1, §2
On the technique in general: A flow cytometer gives signals particle by particle.

The target is the same in assay [4]. Nature of the assay: flow cytometry on HPAF-II cells (carry CEACAM5 and CD47), PE anti-human IgG Fc. How it is done: as §1, §2
Assay [5] concerns the target T3, human CD47 expressed at the surface of MKN-45 cells (human, UniProt Q08722 19-323).
T3 construct: whole, on cells; MKN-45 cells express both CD47 and CEACAM5; also called hCD47
Nature of the assay: CD47/SIRPα blocking assay on MKN-45 cells (carry CD47 and CEACAM5), imaging of bound SIRPα-mouseFc. From the text: The cell-based assay monitoring the interaction of soluble SIRPa with human CD47 expressed at the surface of MKN-45 cells as described below was used for the detection of the blocking activity. Concentration-response experiments with bispecific antibodies according to the invention allowed determination of inhibition curves (see FIG. 4) and of IC50 values (see Table 12).
MKN-45 cancer cells, expressing both CD47 and CEACAM5, were stained with CFSE violet to allow the imaging system (CX5) to detect the cells. Briefly, 3'000 stained MKN-45 cells per well were seeded in a 384 optical well plate (Costar) and incubated for 50 minutes with increased concentrations of bispecific antibodies of the invention ([…] to 333 nM, in quadruplicates). Then, a fixed concentration of SIRPα-mouseFc premixed with anti-mouse IgG-Fc AF647 coupled antibody (Jackson Immunoresearch diluted 1:2000) was added at 50 ng/mL final. After an incubation of 3 hours and 30 minutes, images of the fluorescence signals emitted by the detected bound SIRPa on the plates were acquired with the imaging system (CX5, Thermo Fisher). Fluorescence signals (mean fluorescence intensity MFI) were plotted according to the dose range tested, and IC50 was calculated by the software (Prism, GraphPad).

Numbering of substitutions follows the chain as printed.

T3 sequence (Q08722 19-323): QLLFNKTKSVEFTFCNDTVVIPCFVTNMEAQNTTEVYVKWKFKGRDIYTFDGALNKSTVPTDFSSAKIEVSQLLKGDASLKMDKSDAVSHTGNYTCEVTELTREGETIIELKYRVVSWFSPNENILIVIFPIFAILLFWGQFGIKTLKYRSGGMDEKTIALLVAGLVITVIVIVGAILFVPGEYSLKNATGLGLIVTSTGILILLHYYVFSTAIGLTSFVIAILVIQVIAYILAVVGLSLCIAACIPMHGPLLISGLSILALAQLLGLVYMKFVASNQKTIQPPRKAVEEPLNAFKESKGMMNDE

B1: K2AC84 (bispecific antibody, human IgG1, kappa, lambda)
heavy: not shown
light 1: QSVLTQPPSVSAAPGQKVTISCSGSSSNIGIGLVSWYQQLPGTAPKLLIYNVNTRPSGIPDRFSGSKSGTSATLGITGLQTGDEADYYCGTWDFSYRVDFGGGTKLTVLGQPKAAPSVTLFPPSSEELQANKATLVCLISDFYPGAVTVAWKADSSPVKAGVETTTPSKQSNNKYAASSYLSLTPEQWKSHRSYSCQVTHEGSTVEKTVAPTECS
light 2: not shown
notes: Kappa-lambda body; also called CD47xCEACAM5 bispecific antibody K2AC84; AC84 (CEACAM5 arm)
Turning to B1, in assay [1], the Kd is 360 nM. Also, the figures for the EC50 in assay [2], in assay [3] and in assay [4] were 16 nM, 7.3 nM and 8.7 nM, respectively. For the same molecule, the “Emax (MFI)” value in assay [2] is 360000 MFI; in assay [3] it was 1.52e+06 MFI; in assay [4] it was 1.27e+06 MFI. The IC50 in assay [5] came out at 0.04 nM.

B2: K2AC100 (bispecific antibody, human IgG1, kappa, lambda)
heavy: not shown
light 1: B1 light 1 with I31Y, V52G, T54I
light 2: not shown
notes: Kappa-lambda body; also called CD47xCEACAM5 bispecific antibody K2AC100; AC100 (CEACAM5 arm)
For the molecule B2, in assay [1], the Kd is 700 nM. The EC50 in assay [2] amounted to 18.7 nM; in assay [3] it was 8.7 nM; in assay [4], 8 nM. The “Emax (MFI)” value worked out at 280000 MFI in assay [2], 1.3e+06 MFI in assay [3] and 1.1e+06 MFI in assay [4]. For the same molecule, the IC50 in assay [5] is 0.09 nM.

B3: K2AC22 (bispecific antibody, human IgG1, kappa, lambda)
heavy: not shown
light 1: B1 light 1 with G30A, I31N, L33I, N51F, V52D, T54L, R97G, V98I, D99V
light 2: not shown
notes: Kappa-lambda body, human IgG1, one arm for CEACAM5 and one for CD47; comparison antibody from WO2019234576; also called state of the art bispecific CEAxCD47 antibody K2AC22; CD47xCEACAM5 bispecific antibody K2AC22
B3: in assay [1], the Kd stood at 10000 nM. Besides, the EC50 was found to be 44 nM in assay [2], 21.3 nM in assay [3] and 19.3 nM in assay [4]. The “Emax (MFI)” value worked out at 230000 MFI in assay [2], 1.16e+06 MFI in assay [3] and 670000 MFI in assay [4]. Further, in assay [5], the 50% inhibitory concentration (IC50) amounted to 1.2 nM.

What is called Kd is the concentration at which binding is half-saturated. The EC50 is the midpoint of the concentration-response curve. High values mean weaker potency, low ones greater potency. By IC50 is commonly meant the point on the concentration scale where inhibition reaches its midpoint.
